# Experimental data taken from the DeepSol protein solubility set.
# Test: soluble on expression in E. coli; label from the status in PepcDB or PDB records
row,Sequence,soluble on expression in E. coli
1,MSLDVINQLPSPEALLEELHRVVSKPIRLMVVCGTHNRAILRYGIREELPDFIELVAGPGCSVCVMPTGHVDAFVKVARQPDVITATCEDLLKVRGSKESLADVLNEGVHRVEIISSPRQALELAYVEEDKIVVYPAVGFEATAPSIAETILEAAQNGVGNFCVIPSIRLLPPTIDALLLDPQLSIQGLLCSDHINTISDTEAYADLARKHSLSCCIAGFEKAEILQGILSMVKQIHRGESMVDASGAMVYSMEETARARRVVEEVFFPTETAWRGLGSIAESGFVIRDELALYDATKRFNVRFAEGTDQCMCHCNEIISGRALPPDCPAFGMACTLQNPVGPCMISNEGICAAYFKYKLESSRFSRLDVEGHHHHHH,soluble
2,MKLELSYSDHLQLSESLNELGQTTRITQLEPGEGKYTMSFKQSTGIALAEIQSTQPLLYEGWGTTWSVDFNWITPTCHLNDPFGYCEGYEMKETSLGGFNTLNTSPGNSWGKYSNNCSSTACMLDKNILMKMLKECNAAQAIDNLSKARGLDVSSESLYQLKKLTRKDLVRGIMNPTKYYDLIVACLEGGDKRGYRKGLTKNYRLLGEIVQLSHDSRRMSSPMTLSDVCQYLDTGQASLYRVCQDYFGMGIIEMMTQIRLEEARRALLMFKQNEKNHALTVRDVALGYGFKHQGRFSRRYFTSFGELPSQTLDRSQEL,not soluble
3,GTEVEIPVVHDPKGEAVLPSVFEDGTRQGWDWAGESGVKTALTIEEANGSNALSWEFGYPEVKPSDNWATAPRLDFWKSDLVRGENDYVTFDFYLDPVRATEGAMNINLVFQPPTNGYWVQAPKTYTINFDELEEANQVNGLYHYEVKINVRDITNIQDDTLLRNMMIIFADVESDFAGRVFVDNVRFEGA,soluble
4,VIALLAPGQGSQTEGMLSPWLQLPGAADQIAAWSKAADLDLARLGTTASTEEITDTAVAQPLIVAATLLAHQELARRCVLAGKDVIVAGHSVGEIAAYAIAGVIAADDAVALAATRGAEMAKACATEPTGMSAVLGGDETEVLSRLEQLDLVPANRNAAGQIVAAGRLTALEKLAEDPPAKARVRALGVAGAFHTEFMAPALDGFAAAAANIATADPTATLLSNRDGKPVTSAAAAMDTLVSQLTQPVRWDLCTATLREHTVTAIVEFPPAGTLSGIAKRELRGVPARAVKSPADLDELANL,not soluble
5,MYQHDIGKRSAKVKNVVERGAVKKFAEAIGDPNPIYWDEETGKRSRYGRNIAPPTFPRVFDYGVIEGLKLPAKGLIHGEQHFHYERPLFVGEELYCYAEVKDYFEKQSSMGLLGFLVIANNGEDADGNLIFTSTSTIMINEAVRKAMSV,soluble
6,MQFPVLQESSQSALPQLTGILSSLIVTEEVKAAETDAIMAANTGKSEIVQVTYKLFGLIPFKSSAIQVMPQLKLLPGGQSIGVSLQAKGVMVVGQAAVQNQEGKLVYPAKEAGIEVGDIILKIDGREMNSDQDVANAIHRAGEKQGFSEILLNHNGQTMQKRVSTVYCPETNRHRVGLYVRNEAAGVGTLTFYDPTNHKYGALGHVINDVDTNQKIEILNGNVVASTIYAIEKGKRGHPGEKIGSFVNQSKFSGNIEKNTVSGIFGSLEGEIKNPYFQEPITVGWESEIKEGPAKIYTVLEGERIEEYDVQIERIMHNRTDSKNMVIKVTDPELVEKTGGIIQGMSGSPIVQDGKIIGAVTHVFVNDASRGYGVFIQNMLKDADIIDKKEVALEHHHHHH,not soluble
7,MNPSVKIVVLSLPTATARRSQMSAMLGNTSLDWQYFDAHASLMCPNLHYDGAELRRHFGRNLSPPEIAVCSSHAAILQEFVDRNQADYILVLEDDVIFDTDFPLDQFCAFCASNGLEYVRLFGKHYAKAVHLGFFYDRSIVRFTTSPAGAQAYLMSRMAARRFLDSYQSIRATVDLAMDSFWITQLPIYSIFPYPIIERFSPTSIPMPPHTVEVRGLEHAIWQGARVVNKAKKILTNAKLRKSDESLRQRHWQFRQVGRVDVEQRRDPAAALEHHHHHH,soluble
8,MQNRLRSALALVTGAGSGIGRAVSVRLAGEGATVAACDLDRAAAQETVRLLGGPGSKEGPPRGNHAAFQADVSEARAARCLLEQVQACFSRPPSVVVSCAGITQDEFLLHMSEDDWDKVIAVNLKGTFLVTQAAAQALVSNGCRGSIINISSIVGKVGNVGQTNYAASKAGVIGLTQTAARELGRHGIRCNSVLPGFIATPMTQKVPQKVVDKITEMIPMGHLGDPEDVADVVAFLASEDSGYITGTSVEVTGGLFMAENLYFQ,soluble
9,MKKDITLFTSARPELKFFRLSECKEHLDTAAMWAKNAWGYMHLDDEQFHYKQLQELCEHVYIAMYDGLPVGMLAVIEKTLSLEENREESSEKIVEEPSTPEITEMKNAYLDYVYIDERARSIGLAGIIIEKAKNLAREMNAEVMSLETLNSTLNGFYKRKGGRVICEGRYNDSYPTEVMRLRF,not soluble
10,MHHHHHHSSGVDLGTENLYFQSMKQYEHVTRDLNPEDFWEIIGELGDGAFGKVYKAQNKETSVLAAAKVIDTKSEEELEDYMVEIDILASCDHPNIVKLLDAFYYENNLWILIEFCAGGAVDAVMLELERPLTESQIQVVCKQTLDALNYLHDNKIIHRDLKAGNILFTLDGDIKLADFGVSAKNTRTIQRRDSFIGTPYWMAPEVVMCETSKDRPYDYKADVWSLGITLIEMAEIEPPHHELNPMRVLLKIAKSEPPTLAQPSRWSSNFKDFLKKCLEKNVDARWTTSQLLQHPFVTVDSNKPIRELIAEAKAEVTEEVEDGKE,soluble
11,MGSDKIHHHHHHMRIFLVGMMGSGKSTIGKRISEVLDLQFIDMDEEIERREGRSVRRIFEEDGEEYFRLKEKELLKELVERDNVVVATGGGVVVDPENRELLKKEKTLFLYAPPEVLMERVTTENRPLLSEGKERIREIWEKRKQFYAEFRRIDTSRLNEWETTALVVLEALDEKEISTIEKPHLVKIILGGFKRVRNEELVFTTERVEKIYGRYLPENRLLFPDGEEVKTLEHVSRAYYELIRMDFPRGKTIAGVGGGALTDFTGFVASTFKRGVGLSFYPTTLLAQVDASVGGKNAIDFAGVKNVVGTFRMPDYVIIDPTVTLSMDEGRFEEGVVEAFKMTILSGRGVELFDEPEKIEKRNLRVLSEMVKISVEEKARIVMEDPYDMGLRHALNLGHTLGHVYEMLEGVPHGIAVAWGIEKETMYLYRKGIVPKETMRWIVEKVKQIVPIPVPSVDVEKARNLILNDKKILKGSRVRLPYVKEIGKIEFLEVDPLELLEVVD,not soluble
12,MKYLGLCTDLYELTMAQSYLYEGKTGTAVFSLFVRKLPEKRNFLISAGLETLVERIKNFKFGDEEIKYLKSLGIFKDDFLDYLKDFEFSGNVYAIPEGRIVFQNEPLVQVEAPIPEAQLLETLVINTIQFETMIASKAVRSYLVAKGKKLVDFGFRRAHGLEAGILAARASYIAGFDGTSNVEAGREFGIPVVGTMAHSYVMIFDKEEDAFRAFAKLYPKNAIFLIDTYDTIEAAKKVVDLAKEGVPVVGVRIDSGDIVKLSKEVRKILDENGLKNVRIIVSGGVDEYKIKEWFDRGAPIDAFGVGTKFITSADAPYFDIAYKLVEYEGKPKYKLSPGKKTFPYKRQVYRYYENGKMKYDETAKWESKREGEPLVELVMKNGKLIKELPSLKEIREVVMSELEKLPENYKDITKHYEYEVKILDWE,soluble
13,MALVVQKYGGSSLESAERIRNVAERIVATKKAGNDVVVVCSAMGDTTDELLELAAAVNPVPPAREMDMLLTAGERISNALVAMAIESLGAEAQSFTGSQAGVLTTERHGNARIVDVTPGRVREALDEGKICIVAGFQGVNKETRDVTTLGRGGSDTTAVALAAALNADVCEIYSDVDGVYTADPRIVPNAQKLEKLSFEEMLELAAVGSKILVLRSVEYARAFNVPLRVRSSYSNDPGTLIAGSMEDIPVEEAVLTGVATDKSEAKVTVLGISDKPGEAAKVFRALADAEINIDMVLQNVSSVEDGTTDITFTCPRSDGRRAMEILKKLQVQGNWTNVLYDDQVGKVSLVGAGMKSHPGVTAEFMEALRDVNVNIELISTSEIRISVLIREDDLDAAARALHEQFQLGGEDEAVVYAGTGR,soluble
14,MISEGCEQCAKGGKMVLFVYGYCDQRDCFYCPLGENRKNVTQMYANERPIEDDADVIEEAKRMSALGTSITGGEPQEVLDRTCHYLELLKDEFGEDHHTHLYTGIPGGRENMRRLSEAGLDEIRFHPPLEQWGDLHGTEWEDILYIAREEGLTPAFEIPGIRAEEEFLEFLDEGAADFCNINEFEMSDGNYRRMQEEGFELKEDHMSAVEGSHDILEKMGDHEKVYFCTSVFKDAAQHRSRLKRMARNIRRPFDDVTDDGTLVYGKAWTSEARLETLGVPEEYYTVKSEHVELAWWLLEEMVEEGDVEKGEIVEQYPTYDGTVVERTPLSNGADAGRATADD,not soluble
15,MSLHASAIESIETIIVDLPTIRPHKLAMHTMQNQTLVLIRLRCADGIEGLGESTTIGGLAYGNESPDSIKTNIDRFVAPLLIGQDASNINAAMLRLEQSIRGNTFAKSGIESALLDAQGKRLGLPVSELLGGRVRDALPVAWTLASGDTAKDIAEAQKMLDLRRHRIFKLKIGAGEVDRDLAHVIAIKKALGDSASVRVDVNQAWDEAVALRACRILGGNGIDLIEQPISRNNRAGMVRLNASSPAPIMADESIECVEDAFNLAREGAASVFALKIAKNGGPRATLRTAAIAEAAGIGLYGGTMLEGGIGTLASAHAFLTLNKLSWDTELFGPLLLTEDILAEPPVYRDFHLHVSKAPGLGLSLDEERLAFFRRDKTTPVLHHTEGHHHHHH,soluble
16,MSAATPLIVQQAEAEQLLARIDVLQAMRQLFLDLAAGQALQPAQQLVEFPAGRGDFINYLGVLAQEQVYGVKTSPYIVREQGPLVTAWTLLMSMQTGQPLLLCDAARLTTARTAATTAVAVDALAPAEACRLALIGSGPVAHAHLQYVKGLRDWQGVRVHSPCLDERRLQSLRAIDPRAEAAGSLEEALDEADVILLCTSSARAVIDPRQLKRPALVTSISTNAPRAHEVPAESLAAMDVYCDYRHTTPGSAGEMLIAAEQHGWSPEAIRGDLAELLSAQAPRPEYRRPAFFRSIGLGLEDVALANALYRLRQAG,not soluble
17,MLLKPEEYIERLGEYKRDIYVLGKKIEDFVNHPNIRPTVEAMAYTYSIAEKYAPHSELVGEKVNRLNYVNQTFEDLIARYDYQRELSLKLATCNYRCTGCDAINAIYPATKALDEREGTDYHRRFLELLKEIQKKDYACTAALTDVKGDRGKRPSEQKDKYLRVVEKREDGIVVRGAKICQSGAFAADVNFVLPTQTFRPGEEEFAVVFAAMPEDEGIKYILQNTGIQAKQREGGKFEAGNKYGDRTTCMVVFDDVFIPWERVFVFEDLKAARDVVSYFAPSHRCVGAACKAGFIDSMAGAASLMLKTSGLENVSALQQKVAEMVAVSEGAFAISVGAAVKGANHNGCWLPNFQMANSGKVIGVEGFAKALMNLIDISGGIIGTSPSEFDLEMVGDFLRASEKFTAEQRLKIVKFIEFWTTSSHLVGAFHGGGSPTAALITLRFLMDLSSREEAVKNCIDF,not soluble
18,MSLCGIAGLFNCNLPADELRLDQAVAKLTHRGPDDRGIFLDGRFGMGHTRLSIIDLAGGHQPLFSEDRRLALIANGEIYNFIELRSELTAAGFRFQTQSDSEVILHAYLAFGEGFLERIQGMFAFALYDALEGRLILARDRLGIKPLFLARRPDGIAFASEIKALLPLLDQPREIDPQGLAQYFQNQFSTGATTVLRGVERVLPGEAVVVEAGKTTRRFRYWSPLAVRTEELDFDEAAARFDALMERVMVEHMRSDVPFGLFLSGGVDSSLLLALLTRYSGEPIRTFSVGFPGTSLTDELPLAEGLARRFRSRHREIRPGPQDILHSLPLTVWAADDLMRDNASLPTSLLARAAGEELKVVFSGEGGDEVFAGYGRYRTSPLERLFKSLLAPGSGGFRTRGSFRGRWPKTLFGPALLAAAQSARRPVQESWRETPREWSDLQRMQYVDLCHALPDNLLVKADRMLMAWGVEGRVPFLDHRVVEFGLSLPDRLKIEGRQGKLFLKRWGERLVPAEQLYARKEGHHHHHH,not soluble
19,MKDKQLRLRIYRSAFSSMKNAIVEKAREFGVPVILVDPSYTSSICPVHGSKIIYQPDGGSAPRVGVCGKGGERWHRDVVALYNLRKRAGDVLEHHHHHH,not soluble
